B1: ADC-1 (AbA conjugated to linker drug LD1, structural formula VIII) (antibody, IgG1, V domains shown)
VH: QVQLVQSGAEVKKPGASVKVSCKASGYIFTAYTMHWVRQAPGQGLEWMGWIKPNNGLANYAQKFQGRVTMTRDTSISTAYMELSRLRSDDTAVYYCARSEITTEFDYWGQGTLVTVSS
VL: DIVMTQSPDSLAVSLGERATINCKSSESVDSYANSFLHWYQQKPGQPPKLLIYRASTRESGVPDRFSGSGSGTDFTLTISSLQAEDVAVYYCQQSKEDPLTFGGGTKVEIKR
modifications: TOP1i linker drug LD1 (structural formula V) linked via sulfhydryl groups of reduced cysteine residues; positions not given
B2: ADC-2 (AbA conjugated to linker drug LD2, structural formula IX) (antibody, IgG1, V domains shown)
VH: QVQLVQSGAEVKKPGASVKVSCKASGYIFTAYTMHWVRQAPGQGLEWMGWIKPNNGLANYAQKFQGRVTMTRDTSISTAYMELSRLRSDDTAVYYCARSEITTEFDYWGQGTLVTVSS
VL: DIVMTQSPDSLAVSLGERATINCKSSESVDSYANSFLHWYQQKPGQPPKLLIYRASTRESGVPDRFSGSGSGTDFTLTISSLQAEDVAVYYCQQSKEDPLTFGGGTKVEIKR
modifications: TOP1i linker drug LD2 (structural formula VI, maleimide, hydrolyzed) linked via sulfhydryl groups of reduced cysteine residues; positions not given
B3: ADC-3 (AbA conjugated to linker drug LD3, structural formula X) (antibody, IgG1, V domains shown)
VH: QVQLVQSGAEVKKPGASVKVSCKASGYIFTAYTMHWVRQAPGQGLEWMGWIKPNNGLANYAQKFQGRVTMTRDTSISTAYMELSRLRSDDTAVYYCARSEITTEFDYWGQGTLVTVSS
VL: DIVMTQSPDSLAVSLGERATINCKSSESVDSYANSFLHWYQQKPGQPPKLLIYRASTRESGVPDRFSGSGSGTDFTLTISSLQAEDVAVYYCQQSKEDPLTFGGGTKVEIKR
modifications: TOP1i linker drug LD3 (structural formula VII, maleimide, hydrolyzed) linked via sulfhydryl groups of reduced cysteine residues; positions not given

Biological target: c-Met (human, UniProt P08581 25-1390)
Sequence (P08581 25-1390): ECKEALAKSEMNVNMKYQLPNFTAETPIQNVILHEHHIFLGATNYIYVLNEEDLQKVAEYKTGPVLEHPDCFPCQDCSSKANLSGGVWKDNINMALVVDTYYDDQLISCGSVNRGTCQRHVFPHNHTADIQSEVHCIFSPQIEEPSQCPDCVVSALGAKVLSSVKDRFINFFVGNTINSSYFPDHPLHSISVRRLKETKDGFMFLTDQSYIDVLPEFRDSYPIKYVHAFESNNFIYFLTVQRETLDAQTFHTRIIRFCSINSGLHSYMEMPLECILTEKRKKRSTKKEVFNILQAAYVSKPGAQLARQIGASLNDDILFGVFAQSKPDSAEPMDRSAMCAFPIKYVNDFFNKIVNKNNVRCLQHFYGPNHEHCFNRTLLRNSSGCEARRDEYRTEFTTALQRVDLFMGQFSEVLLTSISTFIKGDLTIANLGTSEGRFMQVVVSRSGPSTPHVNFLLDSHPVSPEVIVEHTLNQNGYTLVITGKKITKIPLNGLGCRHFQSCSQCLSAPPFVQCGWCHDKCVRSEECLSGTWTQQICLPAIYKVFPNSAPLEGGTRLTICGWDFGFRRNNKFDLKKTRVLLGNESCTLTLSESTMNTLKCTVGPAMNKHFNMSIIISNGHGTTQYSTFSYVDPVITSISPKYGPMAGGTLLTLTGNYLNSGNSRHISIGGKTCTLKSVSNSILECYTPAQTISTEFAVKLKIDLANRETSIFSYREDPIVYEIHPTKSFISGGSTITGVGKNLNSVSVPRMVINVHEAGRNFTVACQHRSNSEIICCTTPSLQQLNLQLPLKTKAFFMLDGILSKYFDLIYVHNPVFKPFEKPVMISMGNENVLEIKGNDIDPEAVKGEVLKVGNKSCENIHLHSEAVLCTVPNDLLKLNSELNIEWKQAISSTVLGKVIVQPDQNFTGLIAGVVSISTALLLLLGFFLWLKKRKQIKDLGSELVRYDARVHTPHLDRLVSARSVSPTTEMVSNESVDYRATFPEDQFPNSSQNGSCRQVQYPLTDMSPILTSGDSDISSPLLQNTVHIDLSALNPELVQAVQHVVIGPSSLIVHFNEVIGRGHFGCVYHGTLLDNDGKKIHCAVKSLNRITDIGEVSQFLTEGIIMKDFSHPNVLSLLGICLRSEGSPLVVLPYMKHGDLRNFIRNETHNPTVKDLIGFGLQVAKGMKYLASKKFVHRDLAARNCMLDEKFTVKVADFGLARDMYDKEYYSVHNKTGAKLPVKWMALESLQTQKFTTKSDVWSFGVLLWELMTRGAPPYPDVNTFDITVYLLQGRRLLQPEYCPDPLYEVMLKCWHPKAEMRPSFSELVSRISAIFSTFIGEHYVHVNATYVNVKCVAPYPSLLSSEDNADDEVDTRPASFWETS
Experiment: cell-based or functional assay

Binder	Cytotoxicity IC50 (nM), Calu-3 cells [nM]	Cytotoxicity IC50 (nM), HCC827 cells [nM]	Cytotoxicity IC50 (nM), HEK-293 cells (not different from control) [nM]	Cytotoxicity IC50 (nM), MIA PaCa-2 cells (not different from control) [nM]	Cytotoxicity IC50 (nM), NCI-H441 cells [nM]	Cytotoxicity IC50 (nM), NCI-H441 cells (second row so labelled) [nM]	Cytotoxicity IC50 (nM), NCI-H1573 cells (estimated due to curve-fitting issues) [nM]	Cytotoxicity IC50 (nM), SNU-5 cells [nM]	Cytotoxicity IC50 (nM), NCI-H820 cells [nM]	Cytotoxicity IC50 (nM), Hs 746T cells [nM]	Cytotoxicity IC50 (nM), NCI-H1573 cells [nM]
B1	20	0.85	> 60	> 60	0.25	0.3	~1	0.19	–	–	–
B2	–	0.9	–	> 60	–	0.25	~1	–	0.16	–	–
B3	–	0.5	–	> 60	–	–	–	–	0.06	0.05	1.1

From patent US20260022128A1 (AbbVie / Abbott, published 2026)
